# Test results as given in article PMC6850273, “Cyanophage MazG is a pyrophosphohydrolase but unable to hydrolyse magic spot nucleotides” (Environmental Microbiology Reports, 2019).
# B1: Synechococcus sp. WH7803 'large' MazG (Syn MazG) (Synechococcus sp. WH 7803) (protein)
# chain: MAQHATVPGDQDPLRYLESVVARLRDPVNGCPWDLEQTHASLVPYVLEEAHEVADAIRHGDDRHLKEELGDLLLQVVLHARIGAENNRFDLDAIATTISDKLIRRHPHVFGEARAENTEAVRLSWEAIKAAERAEQSGGEQSSSPLSDQLAGKVRGQPALAAAMTISRKAAKAGFEWDAIDGVWGKVQEELDELKEAIASGDRRHAQDELGDVLFTLVNVARWCGLDPEEGLAATNQRFLDRFSRVESALNGDLQGRSIQELEALWQQAKAAIRAENTQSS
# notes: recombinant, over-expressed in E. coli and purified (tag details only in supplement); two MazG domains
# B2: cyanophage S-PM2 MazG (viral MazG) (Synechococcus phage S-PM2) (protein)
# chain: MSKVNFERYQEFVSEVTSDASTNFVDFADRIGELDREGANIERLLTAGVGINAEGGEFLEIIKKMVFQGKPWNRDNREHLIIELGDIMWYVAQACIALGVSFDDVISGNVKKLEKRYPGGEFDVFYSENRSADDR
# notes: recombinant, over-expressed in E. coli, purified by imidazole elution (tag details only in supplement); single MazG domain
# How the values were obtained:
# Experiment in all cases: PiPER pyrophosphate assay kit, released phosphate
# Settings in all cases: 1 μg purified protein; SE of three replicates
# [1] = substrate: Nc1nc2c(ncn2[C@H]2C[C@H](O)[C@@H](COP(=O)(O)OP(=O)(O)OP(=O)(O)O)O2)c(=O)[nH]1; type: biochemical, Synechococcus sp. WH 7803
# Text: (§1) PiPER pyrophosphate assay kit, released phosphate on Synechococcus sp. WH7803 'large' MazG (Syn MazG)
# [2] = substrate: Nc1ccn([C@H]2C[C@H](O)[C@@H](COP(=O)(O)OP(=O)(O)OP(=O)(O)O)O2)c(=O)n1; type: biochemical, Synechococcus sp. WH 7803
# Text: as §1
# [3] = substrate: Nc1ccn([C@@H]2O[C@H](COP(=O)(O)OP(=O)(O)OP(=O)(O)O)[C@@H](O)[C@H]2O)c(=O)n1; type: biochemical, Synechococcus sp. WH 7803
# Text: as §1
# [4] = substrate: Nc1ncnc2c1ncn2[C@@H]1O[C@H](COP(=O)(O)OP(=O)(O)OP(=O)(O)O)[C@@H](O)[C@H]1O; type: biochemical, Synechococcus sp. WH 7803
# Text: as §1
# [5] = substrate: Nc1nc2c(ncn2[C@@H]2O[C@H](COP(=O)(O)OP(=O)(O)OP(=O)(O)O)[C@@H](O)[C@H]2O)c(=O)[nH]1; type: biochemical, Synechococcus sp. WH 7803
# Text: as §1
# [6] = substrate: Nc1ncnc2c1ncn2[C@H]1C[C@H](O)[C@@H](COP(=O)(O)OP(=O)(O)OP(=O)(O)O)O1; type: biochemical, Synechococcus sp. WH 7803
# Text: as §1
# [7] = substrate: O=c1ccn([C@@H]2O[C@H](COP(=O)(O)OP(=O)(O)OP(=O)(O)O)[C@@H](O)[C@H]2O)c(=O)[nH]1; type: biochemical, Synechococcus sp. WH 7803
# Text: as §1
# [8] = substrate: Nc1nc2c(ncn2[C@H]2C[C@H](O)[C@@H](COP(=O)(O)OP(=O)(O)OP(=O)(O)O)O2)c(=O)[nH]1; type: biochemical, Synechococcus phage S-PM2
# Text: (§2) PiPER pyrophosphate assay kit, released phosphate on cyanophage S-PM2 MazG (viral MazG)
# [9] = substrate: Nc1ccn([C@H]2C[C@H](O)[C@@H](COP(=O)(O)OP(=O)(O)OP(=O)(O)O)O2)c(=O)n1; type: biochemical, Synechococcus phage S-PM2
# Text: as §2
# [10] = substrate: Nc1ccn([C@@H]2O[C@H](COP(=O)(O)OP(=O)(O)OP(=O)(O)O)[C@@H](O)[C@H]2O)c(=O)n1; type: biochemical, Synechococcus phage S-PM2
# Text: as §2
# [11] = substrate: Nc1nc(O)nc2c1ncn2[C@H]1C[C@H](O)[C@@H](COP(=O)(O)OP(=O)(O)OP(=O)(O)O)O1; type: biochemical, Synechococcus phage S-PM2
# Text: as §2
# [12] = substrate: Nc1ncnc2c1ncn2[C@@H]1O[C@H](COP(=O)(O)OP(=O)(O)OP(=O)(O)O)[C@@H](O)[C@H]1O; type: biochemical, Synechococcus phage S-PM2
# Text: as §2
# [13] = substrate: Nc1ncnc2c1ncn2[C@H]1C[C@H](O)[C@@H](COP(=O)(O)OP(=O)(O)OP(=O)(O)O)O1; type: biochemical, Synechococcus phage S-PM2
# Text: as §2
# [14] = substrate: Cc1cn([C@H]2C[C@H](O)[C@@H](COP(=O)(O)OP(=O)(O)OP(=O)(O)O)O2)c(=O)[nH]c1=O; type: biochemical, Synechococcus phage S-PM2
# Text: as §2
# [15] = substrate: O=c1ccn([C@@H]2O[C@H](COP(=O)(O)OP(=O)(O)OP(=O)(O)O)[C@@H](O)[C@H]2O)c(=O)[nH]1; type: biochemical, Synechococcus phage S-PM2
# Text: as §2
# [16] = substrate: O=c1ccn([C@H]2C[C@H](O)[C@@H](COP(=O)(O)OP(=O)(O)OP(=O)(O)O)O2)c(=O)[nH]1; type: biochemical, Synechococcus phage S-PM2
# Text: as §2
protein,measurement,setting,value
B1,Km,[1],0.85 (±0.07) mM
same,Vmax,[1],0.64 µmol/min/mg
same,kcat,[1],0.753 ± 0.293 s⁻¹
same,Km,[2],0.14 (±0.03) mM
same,Vmax,[2],3.81 µmol/min/mg
same,kcat,[2],4.46 ± 0.417 s⁻¹
same,Km,[3],1.2 (±0.21) mM
same,Vmax,[3],1.96 µmol/min/mg
same,kcat,[3],2.3 ± 0.164 s⁻¹
same,Km,[4],0.63 (±0.23) mM
same,Vmax,[4],2.55 µmol/min/mg
same,kcat,[4],2.99 ± 0.407 s⁻¹
same,Km,[5],0.26 (±0.02) mM
same,Vmax,[5],0.7 µmol/min/mg
same,kcat,[5],0.824 ± 0.153 s⁻¹
same,Km,[6],0.3 (±0.09) mM
same,Vmax,[6],1.8 µmol/min/mg
same,kcat,[6],2.1 ± 0.323 s⁻¹
same,Km,[7],1.33 (±0.3) mM
same,Vmax,[7],3.02 µmol/min/mg
same,kcat,[7],3.68 ± 0.1 s⁻¹
B2,Km,[8],0.14 (±0.01) mM
same,Vmax,[8],10.3 µmol/min/mg
same,kcat,[8],6.67 ± 0.165 s⁻¹
same,Km,[9],1.16 (±0.04) mM
same,Vmax,[9],8.86 µmol/min/mg
same,kcat,[9],5.74 ± 0.129 s⁻¹
same,Km,[10],0.85 (±0.11) mM
same,Vmax,[10],2.51 µmol/min/mg
same,kcat,[10],1.62 ± 0.111 s⁻¹
same,Km,[11],4.86 (±1.13) mM
same,Vmax,[11],1.65 µmol/min/mg
same,kcat,[11],1.93 ± 0.0658 s⁻¹
same,Km,[12],1.43 (±0.36) mM
same,Vmax,[12],2.28 µmol/min/mg
same,kcat,[12],1.48 ± 0.157 s⁻¹
same,Km,[13],1.2 (±0.21) mM
same,Vmax,[13],1.62 µmol/min/mg
same,kcat,[13],1.05 ± 0.124 s⁻¹
same,Km,[14],1.23 (±0.06) mM
same,Vmax,[14],5.68 µmol/min/mg
same,kcat,[14],3.68 ± 0.13 s⁻¹
same,Km,[15],0.6 (±0.37) mM
same,Vmax,[15],3.31 µmol/min/mg
same,kcat,[15],2.15 ± 0.119 s⁻¹
same,Km,[16],3.24 (±1.55) mM
same,Vmax,[16],4.22 µmol/min/mg
same,kcat,[16],4.94 ± 0.395 s⁻¹
